Tests used:
PGC7 D9 = biological target: T1, PGC7 D9 (human, UniProt Q6W0C5 20-95); experiment: EMSA
T1 sequence: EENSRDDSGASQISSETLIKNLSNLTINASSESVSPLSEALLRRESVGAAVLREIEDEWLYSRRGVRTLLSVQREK

PGC7 (Dppa3/Stella) = biological target: T2, PGC7 (Dppa3/Stella) (human, UniProt Q6W0C5 1-159); experiment: EMSA
T2 sequence: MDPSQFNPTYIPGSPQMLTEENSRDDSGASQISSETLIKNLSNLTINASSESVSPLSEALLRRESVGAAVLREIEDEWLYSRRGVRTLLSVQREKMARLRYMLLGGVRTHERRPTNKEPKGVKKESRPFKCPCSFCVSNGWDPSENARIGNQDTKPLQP

B1: PGC7 motif 50-mer (dsDNA)
DNA 1: GAGTAAGATCATGCCACTGCACTTCAGCCTGGGCACAGAGTGAGGCTGGG
DNA 2: CCCAGCCTCACTCTGTGCCCAGGCTGAAGTGCAGTGGCATGATCTTACTC
B1: binds (PGC7 D9); binds (PGC7 (Dppa3/Stella)).

— publication PMC3950671
